Results reported in patent publication US20250043319A1, “BIOSYNTHESIS OF CYCLOLAVANDULYL DERIVATIVES OF AROMATIC COMPOUNDS” (Invizyne Technologies, Inc., priority 2022, published 2025).

Tests used:
Assay type in all cases: biochemical
Settings in all cases: cell-free reaction with CLDS and DMAPP (CLPP donor), 28° C., 48 hours, QTOF LC/MS, with vs without prenyltransferase
[1] = cell-free cyclolavandulylation activity screening of prenyltransferases, substrate resveratrol
Description: (§1) Genes encoding the following prenyltransferases were codon-optimized, synthesized, and cloned into the pET28a vector for protein expression and isolation/purification as described in Example 1. • NphB (Accession: 1ZB6_A) (SEQ ID NO: 8) • AbPT (Accession: KPI30840.1) (SEQ ID NO: 9) • SkPT (Accession: Q2L6E3.1) (SEQ ID NO: 10) • SvPT (Accession: WP_078899560.1) (SEQ ID NO: 11) • Sr1310PT (Accession: WP_057602682.1) (SEQ ID NO: 12) • NapT8 (Accession: ABS50461.1) (SEQ ID NO: 13) • NapT9 (Accession: ABS50490.1) (SEQ ID NO: 14) • Mcl23PT (Accession: AGH68908.1) (SEQ ID NO: 15) • CnqP3PT (Accession: WP_047018069.1) (SEQ ID NO: 16) • AtaWTPT (Accession: AMB20850.1) (SEQ ID NO: 17) • MzPT1 (Accession: WP_135330628.1) (SEQ ID NO: 18) • MzPT2 (Accession: WP_135330626.1) (SEQ ID NO: 19) B. Cell-Free Biosynthesis Reaction with CLPP and Various Aromatic Substrates
(§2) The cyclolavandulyl diphosphate synthase, CLDS was prepared as described in Example 1 and used in the synthesis of CLPP.
(§3) Stocks of the various aromatic compounds used as substrates for cyclolavandulylation activity screening were obtained from the following commercial sources: • Resveratrol (Fisher Scientific) 200 mM stock in DMSO • Luteolin (Fisher Scientific) 200 mM stock in DMSO • Naringenin (Fisher Scientific) 200 mM stock in DMSO • Tryptamine (Fisher Scientific) 200 mM stock in DMSO • Tryptophan (Fisher Scientific) 40 mM stock in water • Olivetolic acid (Toronto Research Chemicals) 200 mM stock in DMSO • Divarinic acid (Toronto Research Chemicals) 200 mM stock in DMSO • Phorolic acid (prepared in house) 200 mM stock in DMSO • Olivetol (Fisher Scientific) 200 mM stock in DMSO • Screening for cell-free biosynthesis was carried out as follows. 10 mM DMAPP, 5 mM MgCl2, 100 mM Tris-HCl (pH=8), and 4 mg/mL CLDS (SEQ ID NO: 4) were combined in a 6.80 mL reaction, which was incubated at 28° C. for 48 hours. This mixture was aliquoted into a 96-well plate (80 μL per well). The various prenyltransferases (18 μL, ˜1 g/L final concentration) listed above were screened across various substrates (2 μL of stock solution, variable concentration shown above), which were added to the wells and incubated at 28° C. for an additional 48 hours.
(§4) Analysis of the reaction mixture was carried out as follows: 50 μL of the reaction mixture were added to 1 mL MeOH. The resulting solution was vortexed, centrifuged at 17,200 g for 5 minutes, and transferred to an HPLC vial for analysis. HRMS-QTOF analyses of the cell free reactions was performed on an Agilent Technologies 6545 Accurate Mass QTOF LC/MS with a reverse-phase column (Agilent Infinity Lab Poroshell 120 ECC18, 2.7 μm, 3.0×50 mm) using positive ESI with 1% MeCN—H2O (0.1% FA) for 2 min followed by a linear gradient of 1-99% MeCN—H2O (0.1% FA) for 14 min with a flow rate of 0.4 mL/min.
(§5) Mass spectrometric (MS) analysis of chromatograms was carried out using MassHunter Qualitative Analysis 10.0. Targeted metabolomics using the exact m/z of the calculated proton adduct [H^+] in the presence and absence of prenyltransferase indicated the presence of cyclolavandulylated product.

[2] = cell-free cyclolavandulylation activity screening of prenyltransferases, substrate tryptophan
Description: as §1, §2, §3, §4, §5

[3] = cell-free cyclolavandulylation activity screening of prenyltransferases, substrate luteolin
Description: as §1, §2, §3, §4, §5

[4] = cell-free cyclolavandulylation activity screening of prenyltransferases, substrate olivetolic acid
Description: as §1, §2, §3, §4, §5

[5] = cell-free cyclolavandulylation activity screening of prenyltransferases, substrate naringenin
Description: as §1, §2, §3, §4, §5

[6] = cell-free cyclolavandulylation activity screening of prenyltransferases, substrate tryptamine
Description: as §1, §2, §3, §4, §5

B1: SkPT: prenyltransferase, Accession: Q2L6E3.1, SEQ ID NO: 10 (protein, listed as Streptomyces sp.)
chain: MPGTDDVAVDVASVYSAIEKSAGLLDVTAAREVVWPVLTAFEDVLEQAVIAFRVATNARHEGDFDVRFTVPEEVDPYAVALSRSLIAKTDHPVGSLLSDIQQLCSVDTYGVDLGVKSGFKKVWVYFPAGEHETLARLTGLTSMPGSLAGNVDFFTRYGLADKVDVIGIDYRSRTMNVYFAAPSECFERETVLAMHRDIGLPSPSEQMFKFCENSFGLYTTLNWDTMEIERISYGVKTENPMTFFARLGTKVEHFVKNVPYGVDTQKMVYAAVTSSGEEYYKLQSYYRWRSVSRLNAAYIAARDKEST
No: presence of cyclolavandulylated product, Aromatic Compound (Substrate) Resveratrol [1] | presence of cyclolavandulylated product, Aromatic Compound (Substrate) Tryptophan [2] | presence of cyclolavandulylated product, Aromatic Compound (Substrate) Luteolin [3] | presence of cyclolavandulylated product, Aromatic Compound (Substrate) Olivetolic Acid [4] | presence of cyclolavandulylated product, Aromatic Compound (Substrate) Naringenin [5] | presence of cyclolavandulylated product, Aromatic Compound (Substrate) Tryptamine [6]

B2: NapT8: prenyltransferase, Accession: ABS50461.1, SEQ ID NO: 13 (protein, listed as Streptomyces aculeolatus)
chain: MEGLYAAIEEASGLLDVAPSRDKVWPILSAYELDKVVVAFRVTTRGSKDLDCRFTALPADVNPYRYAVSKGIAEATDHPVGTLLDDVQANIPVTAHGVDFGVVEGFRKTWTFLPGNDLQKLSKVAALPSMPPSLAENLDFYARYGLDDKNSMIGIDYPSRTVNVYFLQFPDETREPETVRAMLRDLGLPEPSEQMLTLAKQAVGIYTTLTWDSPKIQRITFATLVPDAEALPGRIAVEPSVEKFARNVPHTYPGPVQGLYNVASYSGGEYFKLQTYHQLAEGSLEARVLLGAAGAGS
No: presence of cyclolavandulylated product, Aromatic Compound (Substrate) Resveratrol [1] | presence of cyclolavandulylated product, Aromatic Compound (Substrate) Tryptophan [2] | presence of cyclolavandulylated product, Aromatic Compound (Substrate) Luteolin [3] | presence of cyclolavandulylated product, Aromatic Compound (Substrate) Olivetolic Acid [4] | presence of cyclolavandulylated product, Aromatic Compound (Substrate) Naringenin [5] | presence of cyclolavandulylated product, Aromatic Compound (Substrate) Tryptamine [6]

B3: MzPT2: prenyltransferase, Accession: WP_135330626.1, SEQ ID NO: 19 (protein, listed as Streptomyces sp.)
chain: MSGTAVEKLYSAIEETAGLLDVTCSRDKVWPVLASFEDAIPQAAILFRVATDKRHAGELNLHFMMLPGDVDPYALALSNDLMAKTEHPVGSLLSDIAERFPVESYGIDFGVVKGFQKTWSCFPGNSMQSLSKLAEVPSVPSSLAGNLDFFSRYGLDENVTLVGIDFEHRTMNVYFGEVAELLEPDAVKSMLRDLEMPEPSEQLLNFAKQSFGFYATLSWDSPRIERFCYAAIAPDPMALLDQVEPKIEHFLKTVPYGVDDPKAVYAATSPNDGEFYKIQSYYQWRPRLVNHMHTSVSDSGE
No: presence of cyclolavandulylated product, Aromatic Compound (Substrate) Resveratrol [1] | presence of cyclolavandulylated product, Aromatic Compound (Substrate) Tryptophan [2] | presence of cyclolavandulylated product, Aromatic Compound (Substrate) Luteolin [3] | presence of cyclolavandulylated product, Aromatic Compound (Substrate) Olivetolic Acid [4] | presence of cyclolavandulylated product, Aromatic Compound (Substrate) Naringenin [5] | presence of cyclolavandulylated product, Aromatic Compound (Substrate) Tryptamine [6]

B4: Sr1310PT: prenyltransferase, Accession: WP_057602682.1, SEQ ID NO: 12 (protein, listed as Streptomyces sp.)
chain: MSGAADVERVYAAMEEAAGLLDVSCAREKIYPLLTVFQDTLTDGVVVFSMASGRRSTELDFSISVPVSQGDPYATVVKEGLFQATGSPVDELLADTVAHLPVSMFAIDGEVTGGFKKTYAFFPTDDMPGVAQLAAIPSMPASVAENAELFARYGLDKVQMTSMDYKKRQVNLYFSDLKQEYLQPESVVALARELGLRVPGELGLEFCKRSFAVYPTLNWDTGKIDRLCFAAISTDPTLVPSEDERDIEMFRNYATKAPYAYVGEKRTLVYGLTLSSTEEYYKLGAYYHITDIQRQLLKAFDALED
No: presence of cyclolavandulylated product, Aromatic Compound (Substrate) Resveratrol [1] | presence of cyclolavandulylated product, Aromatic Compound (Substrate) Tryptophan [2] | presence of cyclolavandulylated product, Aromatic Compound (Substrate) Luteolin [3] | presence of cyclolavandulylated product, Aromatic Compound (Substrate) Olivetolic Acid [4] | presence of cyclolavandulylated product, Aromatic Compound (Substrate) Naringenin [5] | presence of cyclolavandulylated product, Aromatic Compound (Substrate) Tryptamine [6]

B5: CnqP3PT: prenyltransferase, Accession: WP_047018069.1, SEQ ID NO: 16 (protein, listed as Streptomyces sp.)
chain: MSGAADVERVYSAMEEAARLLDITVSREKVRPALEAYHEVLADAVVVFSMASGRYATELDFSISVPAEAGDPYRVALAKGLTPRTDHPVGRLLADTQEHCPVSMFAFDGEITGGFKKTYAFFPTNDLQSASKLAEIPSMPDSVKENADLFARYGLDKVQMTSIDYKKKAVNLYFSEMSPDILGPDTVRSMLRDMGLKETGETGLTFARRSFSVYPTLNWETGRIERLCFAVISRDPTLAPAERAEDLAKFSKYANNAPYAYAGEARTLVYGLTLTPREEYYKLGSYYQISDIQRKLLKAFDSLND
No: presence of cyclolavandulylated product, Aromatic Compound (Substrate) Resveratrol [1] | presence of cyclolavandulylated product, Aromatic Compound (Substrate) Tryptophan [2] | presence of cyclolavandulylated product, Aromatic Compound (Substrate) Luteolin [3] | presence of cyclolavandulylated product, Aromatic Compound (Substrate) Olivetolic Acid [4] | presence of cyclolavandulylated product, Aromatic Compound (Substrate) Naringenin [5] | presence of cyclolavandulylated product, Aromatic Compound (Substrate) Tryptamine [6]

B6: SvPT: prenyltransferase, Accession: WP_078899560.1, SEQ ID NO: 11 (protein, listed as Streptomyces sp.)
chain: MSEASELADIYSAIEETAQLLDVPCSRDKVQPALAAFGDGLADAHIVFSMATGERYKGELAFDFTVPTAAGDPYAIALANGLVEETDHPIRTLFSDVQKRCPVDSYGVDYGIVGGFKKTYISFPLGDLQRLSALVGIPSMPRALAEHADFFASHGLDDKVSAIAIDYAHRTWNVYFSGIPAEVKEPQTLQSVLQKFGLPEPSEQLMDFIRTSFAMYTTFGWDSTKAERICFSARSSDPTALPAQFEPQIGKFAKSAPYTYTGERVLTYAGALSPSEEFYKLATFYQKTSKLSDRVRPAT
No: presence of cyclolavandulylated product, Aromatic Compound (Substrate) Resveratrol [1] | presence of cyclolavandulylated product, Aromatic Compound (Substrate) Tryptophan [2] | presence of cyclolavandulylated product, Aromatic Compound (Substrate) Luteolin [3] | presence of cyclolavandulylated product, Aromatic Compound (Substrate) Olivetolic Acid [4] | presence of cyclolavandulylated product, Aromatic Compound (Substrate) Naringenin [5] | presence of cyclolavandulylated product, Aromatic Compound (Substrate) Tryptamine [6]

B7: Mcl23PT: prenyltransferase, Accession: AGH68908.1, SEQ ID NO: 15 (protein, listed as Streptomyces sp.)
chain: MSGETDAEELCSAIEETARLVGAPCSREKIWPILTEYRSGFAEGGVVFSAQAGENHAGELDYGLAVPPRIDDPYAHALAHGFVTETDHPVAALLSDIRERCAVTEHFADCGVVGGFRKLYAHFPRDLQKVSEIADIPSMPRAVAENVGLFTRYGLENVVMVGVNYKNKTVSLYFQFTAEGRPRPSAIRSMLGDIGMTEPNERMLDFASNSFRANITLSWDSPKILRVAFAPPPGAGLNLSTVPIPTGPHLEDFVTRAPRAYDGERMNLFAVKWTQDKEFLEVCSYYQLPAGYEPIRQMEIHKEQG
No: presence of cyclolavandulylated product, Aromatic Compound (Substrate) Resveratrol [1] | presence of cyclolavandulylated product, Aromatic Compound (Substrate) Tryptophan [2] | presence of cyclolavandulylated product, Aromatic Compound (Substrate) Luteolin [3] | presence of cyclolavandulylated product, Aromatic Compound (Substrate) Olivetolic Acid [4] | presence of cyclolavandulylated product, Aromatic Compound (Substrate) Naringenin [5] | presence of cyclolavandulylated product, Aromatic Compound (Substrate) Tryptamine [6]
